Positions count from the first letter of the chain named. Names may count otherwise.
What was measured:
human IL-9 [1] = biological target: T1, human IL-9 (human, UniProt P15248 19-144); experiment: cell-based or functional assay
human IL-9 [2] = biological target: T1, human IL-9; experiment: cell-based or functional assay; remark: listed apart in the source
human IL-9 [3] = biological target: T1, human IL-9; experiment: BLI (Octet Red 96), mAb captured on anti-hIgG Fc sensor, hIL-9 in solution, 1:1 model
Method: (§1) The BLI experiments on the antagonistic antibodies were performed using an Octet Red 96 machine (Sartorius) in kinetics buffer (PBS, 0.1% (w/v) BSA, 0.02% (v/v) Tween20) at 298 K. Anti-hIgG Fc capture (AHC) or anti-mIgG Fc capture sensors (Sartorius) were functionalized with the IL-9 mAbs. […] Non-functionalized tips were used as negative controls in a double referenced setup. After subtracting the control sensorgrams, the resulting data was fitted with a 1:1 binding model. Data analysis was performed using the Data Analysis software 9.0.0.14 (Sartorius) (Table 6).

mouse IL-9 [4] = biological target: T2, mouse IL-9 (mouse, UniProt P15247 19-144); experiment: cell-based or functional assay
T2 sequence: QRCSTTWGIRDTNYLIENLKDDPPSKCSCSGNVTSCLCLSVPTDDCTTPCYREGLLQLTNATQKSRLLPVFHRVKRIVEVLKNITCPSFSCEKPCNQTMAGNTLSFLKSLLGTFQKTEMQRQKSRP

human IL-9 [5] = biological target: T1, human IL-9; experiment: SPR screening of Fab periplasmic extracts
Method: (§2) The binding of Fabs (periplasmic extract) to their respective mouse or human targets was determined by surface plasmon resonance (SPR) using a Biacore 3000 apparatus (GE Healthcare). IL-9 was immobilized on a carboxymethyl dextran sensor chip (CM-5) using amine coupling in sodium acetate buffer (GE Healthcare). The Fab-containing periplasmic extracts were loaded with a flow rate of […]. The Fab binding and off-rates were measured over a 90 second period (Table 5). […] Furthermore, the ability of the antibodies to compete for human or mouse IL-9 binding to human or rat IL-9R was tested also in a Biacore 3000. For this assay, human or rat IL-9R was coated at high density on a carboxymethyl dextran sensor chip (CM-5). Then, a premade mixture of periplasmic extract (Fab) and IL-9 was injected.

human IL-9 [6] = biological target: T1, human IL-9; experiment: SPR (Biacore 3000), IL-9 immobilised on CM-5 chip, Fab periplasmic extract injected
Method: as §2

mouse IL-9 [7] = biological target: T2, mouse IL-9; experiment: as above
Method: as §2

mouse IL-9 [8] = biological target: T2, mouse IL-9; experiment: BLI (Octet Red 96), mAb captured on anti-mIgG Fc sensor, mIL-9 in solution, 1:1 model
Method: as §1

T1 sequence (P15248 19-144 limits assumed): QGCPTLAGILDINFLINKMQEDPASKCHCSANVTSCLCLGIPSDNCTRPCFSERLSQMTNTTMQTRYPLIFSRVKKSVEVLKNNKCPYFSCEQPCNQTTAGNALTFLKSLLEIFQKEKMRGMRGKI

B1: anti-hIL-9 antibody 6E2 (full IgG) (antibody, V domains shown)
VH: QVQLVESGGGLVQPGGSLRLSCAASGFTFSSSAMGWVRQAPGKGLEWVSTIVNSITTTYYADSVKGRFTISTDNAKNTLYLQIDSLKSEDTAVYYCGSLAGPYYDYWGQGTQVTVSS
VL: LSSALTQPSTVSVSLGQTARITCQGGSLGSYDAHWYQQKPGQAPVLVIHDNNSRPSGIPERFTGSRSGETATLTISGAQTEDEADYYCQSYDSTSDALVFGGGTQLTVL
notes: also called mAb 6E2; 9MP6E2
- Bioassay IC50 [pM]: inhibition of human IL-9-induced Baf3hIL9RA6 cell proliferation (human IL-9 [1]): 30.9 pM
- IC50, inhibition of human IL-9-induced Baf3hIL9RA6 cell proliferation (hexosaminidase, OD405) (human IL-9 [2]): 60.9 pM
- Kd (human IL-9 [3]): 240 pM

B2: anti-hIL-9 antibody 6D3 (full IgG) (antibody, V domains shown)
VH: QVQVQESGPGLVKPSQTLSLTCTVSGGPITTRYYAWSWIRQPPGKGLEWMGLIDYDGSVYYSPSLKSRTSISRDTAKNQFSLQLSSVTPEDTAVYYCARVSAATLFLDYWGQGTQVTVSS
VL: LSYELTQPSALSVTLGQTAKITCQGGSLGSSYAHWYQQKPDQAPILVIYDDDSRPSGIPERFSGSSSGGTATLTISGAQAEDEGDYYCQSYDSSANFVFGGGTKLTVL
notes: also called mAb 6D3; 9MP6D3
- Bioassay IC50 [pM]: inhibition of human IL-9-induced Baf3hIL9RA6 cell proliferation (human IL-9 [1]): 58.4 pM
- IC50, inhibition of human IL-9-induced Baf3hIL9RA6 cell proliferation (hexosaminidase, OD405) (human IL-9 [2]): 115 pM
- Kd (human IL-9 [3]): 130 pM

B3: anti-hIL-9 antibody 7D6 (full IgG) (antibody, V domains shown)
VH: QLQLVESGPGLVKPSQTLSLTCTVSGGSITTGYYAWSWIRQPPGKGLEWMGFIARDGSTSYSPSLKSRTSISRDTSKNQFSLQLSSVTPEDTAVYYCARAGEGRSWYPGYYYGMDYWGKGTLVTVSS
VL: AQAVVTQEPSLSVSPGGTVTLTCGLSSGSVTSSNYPGWYQQTPGQAPRVLIYNTNSRHSGVPSRYSGFISGNKAALTITGAEPEDEADYYCHLHKGSTGVFGGGTHLTVL
notes: also called 9MP7D6
- Bioassay IC50 [pM]: inhibition of human IL-9-induced Baf3hIL9RA6 cell proliferation (human IL-9 [1]): 2110 pM
- IC50, inhibition of human IL-9-induced Baf3hIL9RA6 cell proliferation (hexosaminidase, OD405) (human IL-9 [2]): 6300 pM
- Kd (human IL-9 [3]): 1810 pM

B4: anti-mIL-9 antibody 35D8, new batch (mIgG1-N297A) (antibody, V domains shown)
VH: QVQLVESGPGLVQPSQTLSLTCTVSGGSITTSYYDWSWIRQPPGKGLEWMGAIAYSGNAYYSPSLKSRTSISRDTSKNQFTLQLSSVTPEDTAVYYCAREDHYSDTHGWNDYWGQGTQVTVSS
VL: SSALTQPSAVSVSLGQTARITCQGGSIGNFGATWYQQKPGQAPVLLSLGEHSRPSGIPERFSGSKSGGTATLTISGAQAEDEADYYCQSFDYIGNDHVFGGGTHLTVL
- Bioassay IC50 [pM]: neutralisation of mouse IL-9 on TS1 cells (hexosaminidase activity) (mouse IL-9 [4]): 20.1 pM

B5: Fab 6F2 (Fab, V domains shown)
VH: EVQLQESGPGLVKPSQTVSLTCTVSGGSITTRYYGWSWIRQPPGKGLEWMGVVYSDGSTSYSPSLESRTSISRDTSKNQFSLQLSFVTPEDTAVYYCARDRAEARLRVGPTGGNDYWGQGTQVTVSS
VL: AQAVVTQEPSLSVSPGGTVTLTCGLSSESVTSSNYPDWYQQTPGQVPRLLIYTTNSRHSGVPSRFSGSISGNKAALTITGAQPEDEADYYCGLYMGSTAVFGGGTKLTVL
notes: Llama-derived Fab (VH-CH1 and VL-CL) from E. coli periplasmic extract; also called 9MP6F2
- binding result (human IL-9 [5]): binds

B6: Fab 8G3 (Fab, V domains shown)
VH: EVQLVESGPGLVKPSQTLSLTCTVSGDSITTSYYGWGWIRQPPGKGLEWMGVIFSDGGTTYSPSLKSRTSISRDTSKSQFSLQLSSVTPEDTAVYYCARVQYYSGSYSYPTHIYDYWSQGTQVTVSS
VL: AQAVVTQEPSLSVSPGGTVTLTCGLSSGSVTTSNYPGWFQQTPGQAPRTLIYSTSSRHSGVPSRFSGSMSGNKAALTITGAQPEDEADYYCALHMGSSTVFGGGTHLTVL
notes: Llama-derived Fab (VH-CH1 and VL-CL) from E. coli periplasmic extract; also called 9MP8G3
- binding result (human IL-9 [5]): binds

B7: Fab 8C3 (Fab, V domains shown)
VH: EVQVQESGPGLVKPSQTLSLTCTVSGGSITTSSYGWMWIRQPPGKGLEWMGVIFSDGSTAYNPSLRSRTSISRDTSKNQFSLQLSSVTPEDTAVYYCARSFVRGVVIGELDYGMDYWGKGTLVTVSS
VL: B6 VL
notes: Llama-derived Fab (VH-CH1 and VL-CL) from E. coli periplasmic extract; also called 9MP8C3
- koff (human IL-9 [6]): 0.00067 s⁻¹
- binding result (mouse IL-9 [7]): no binding

B8: anti-mIL-9 antibody 35D8 (full mIgG2a) (antibody, V domains shown)
VH: B4 VH
VL: B4 VL
notes: the BLI values are placed here; also called mouse IL-9 mAb
- Kd (mouse IL-9 [8]): 110 pM
- koff (mouse IL-9 [8]): 0.000159 s⁻¹
- kon (mouse IL-9 [8]): 1.39e+06 M⁻¹ s⁻¹

B9: Fab 6C4 (Fab, V domains shown)
VH: QVQLVESGGGLVQPGGSLRLSCAASGFTFDDYAMSWVRQAPGKGLEWVSAISWNGGSTYHAESMKGRFTISRDNAKNTLYLQMNSLKSEDTAVYYCAKNLYGSSWYEYDYWGQGTQVTVSS
VL: LSYELTQPSAVSTSLGQTARVTCQGDILESYGASWYQQKPGQAPVLVIYGDDSRPSGIPERFSGSSSGGTATLTISGAQAEDEADYYCLSADSSDYNAVFGGGTHLTVL
notes: Llama-derived Fab (VH-CH1 and VL-CL) from E. coli periplasmic extract; also called 9MP6C4
- koff (human IL-9 [6]): 0.00044 s⁻¹
- binding result (mouse IL-9 [7]): no binding

B10: Fab 7D6 (Fab, V domains shown)
VH: B3 VH
VL: B3 VL
notes: it is treated as the same molecule; also called 9MP7D6
- binding result (mouse IL-9 [7]): no binding

B11: Fab 7A4 (Fab, V domains shown)
VH: B3 VH with Q1E, L2V
VL: B3 VL with G37A, K95E, T108N
notes: Llama-derived Fab (VH-CH1 and VL-CL) from E. coli periplasmic extract; also called 9MP7A4
- koff (human IL-9 [6]): 0.00013 s⁻¹
- binding result (mouse IL-9 [7]): no binding

B12: Fab 35D8 (Fab, V domains shown)
VH: B4 VH
VL: B4 VL
notes: it is treated as the same molecule
- binding result (human IL-9 [6]): no binding
- koff (mouse IL-9 [7]): 0.00047 s⁻¹

B13: Fab 6E2 (Fab, V domains shown)
VH: B1 VH
VL: B1 VL
notes: it is treated as the same molecule; also called 9MP6E2
- binding result (mouse IL-9 [7]): no binding

B14: Fab 6D3 (Fab, V domains shown)
VH: B2 VH
VL: B2 VL
notes: it is treated as the same molecule; also called 9MP6D3
- binding result (mouse IL-9 [7]): no binding

Reference: patent publication US20240109960A1 (ARGENX, published 2024)
